According to patent US20130202608A1:

What was measured:
Experiment in all cases: cell-based or functional assay
[1] = molecular target: hemagglutinin of A/chicken/Singapore/Sg02 H3N2 (influenza A virus A/chicken/Singapore/Sg02 (H3N2))
[2] = molecular target: hemagglutinin of A/Indonesia/CDC669/2006 (H5N1, clade 2.1) (influenza A virus A/Indonesia/CDC669/2006 (H5N1))
[3] = molecular target: hemagglutinin of A/Indonesia/TLL013/2006 (H5N1, clade 2.1) (influenza A virus A/Indonesia/TLL013/2006 (H5N1))
[4] = molecular target: hemagglutinin of A/Common iora/Indonesia/F89/H7N1 (influenza A virus A/Common iora/Indonesia/F89 (H7N1))
[5] = molecular target: hemagglutinin of A/Indonesia/TLL014/2006 (H5N1, clade 2.1) (influenza A virus A/Indonesia/TLL014/2006 (H5N1))

B1: murine monoclonal antibody 4C2 (antibody, V domains shown)
VH: QESGAELVRPGASVKLSCKDSGYTFTTYWMNWVKQRPEQGLEWIGRIDPYDSETHYNQKFKDKAILTVDKSSNTAYMQLSSLTSEDSAVYYCVRGGSTVAYFGVWGQG
VL: MTQSPSSMSVSLGDTVSITCHASQDISGHIGWLQQKPGKSFKGLIYHGTNLEDGVPSRFSGSGSGADFSLTISSLESEDFADYYCVQYVQFPWTFGGGTK
B1 was tested, and the HI titer (titer (mAb at 1 mg/ml)) [1] was < 4, the Microneutralization titers against H5N1 strains [1] was < 10 and the HI titer (titer (mAb at 1 mg/ml)) [2] was 512. It also gave a Microneutralization titers against H5N1 strains [2] of 320, an HI titer (titer (mAb at 1 mg/ml)) [3] of 512 and a Microneutralization titers against H5N1 strains [3] of 640. The HI titer (titer (mAb at 1 mg/ml)) [4] was < 4, the Microneutralization titers against H5N1 strains [4] was < 10 and the HI titer (titer (mAb at 1 mg/ml)) [5] was 512. The Microneutralization titers against H5N1 strains [5] was 320.
